Source: US20050020528A1

Columns and labels:
fusin/CXCR4 receptor [1] = target: fusin/CXCR4 receptor (UniProt P61073); assay: flow cytometry, fluorescently labeled 12G5 on untreated U937 cells
fusin/CXCR4 receptor [2] = target: fusin/CXCR4 receptor (UniProt P61073); assay: flow cytometry on U937 cells, background subtracted from the 12G5 data

Chain of UniProt P61073 (P61073 whole entry): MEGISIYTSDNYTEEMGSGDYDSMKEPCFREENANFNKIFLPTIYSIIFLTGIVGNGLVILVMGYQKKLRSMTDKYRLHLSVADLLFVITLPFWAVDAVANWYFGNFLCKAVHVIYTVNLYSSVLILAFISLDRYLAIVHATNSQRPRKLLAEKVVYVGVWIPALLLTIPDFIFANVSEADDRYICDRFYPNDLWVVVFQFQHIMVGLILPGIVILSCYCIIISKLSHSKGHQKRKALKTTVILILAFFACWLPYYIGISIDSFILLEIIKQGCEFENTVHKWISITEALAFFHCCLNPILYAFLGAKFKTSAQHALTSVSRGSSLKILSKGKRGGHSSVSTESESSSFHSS

Row | Substance | Median Fluorescence (net of isotype control) (fusin/CXCR4 receptor [1]) | median fluorescence (fusin/CXCR4 receptor [2])
1 | anti-fusin/CXCR4 12G5 monoclonal antibody | 23.2 | 
2 | isotype control (antibody) |  | 3.6
